In patent EP4703382A1 (Kanglitai Biomedical (Qingdao) Co., Ltd., dated 2026):
Where “and” joins values, the source holds several entries; their conditions need not be identical. Equal entries are not always repeated. Where two headings read alike, the source gives them in different places. Values belong to the binder of their own block, whether it stands above or below them.

How the values were obtained:
[1] = target: T1, human PD-L1 expressed on Raji cells (human, UniProt Q9NZQ7 19-290); assay: flow cytometry on Raji cells expressing human PD-L1, anti-His FITC
T1 construct: whole, on cells; also called Raji-PDL1; PDL1 protein expressed on Raji cells

[2] = target: T1, human PD-L1 expressed on Raji cells; assay: flow cytometry competition on Raji-PDL1 cells, competitor PD1-Fc
[3] = target: T2, BSA (UniProt P02769 25-607); assay: ELISA, 200 ng/well coated, anti-His HRP
T2 construct: unrelated protein of the specificity ELISA

[4] = target: T3, HAS (UniProt P02768 25-609); assay: ELISA, 200 ng/well coated, anti-His HRP
T3 construct: unrelated protein of the specificity ELISA; label read as HSA

[5] = target: T4, human PDL1-Fc fusion protein (human); assay: ELISA, human PDL1-Fc coated 200 ng/well, anti-His HRP
T4 construct: also called human PDL1-Fc recombinant protein

[6] = target: T5, recombinant protein PD-L1-His (human, UniProt Q9NZQ7 19-238); assay: competitive ELISA, PDL1-his coated, competitor PD1-Fc 50 µg/mL
T5 construct: also called PD-L1-his fusion protein; human PDL1-his protein

[7] = target: T4, human PDL1-Fc fusion protein; assay: ELISA, human PDL1-Fc coated 200 ng/well, anti-His HRP; remark: listed apart in the source
[8] = target: T4, human PDL1-Fc fusion protein; assay: BLI (ForteBIO Octet QKe), PDL1-Fc loaded, analyte 100 nM
[9] = target: T1, human PD-L1 expressed on Raji cells; assay: flow cytometry competition on Raji-PDL1 cells, competitor PD1-Fc; remark: listed apart in the source
[10] = target: T4, human PDL1-Fc fusion protein; assay: ELISA, human PDL1-Fc coated 200 ng/well, anti-His HRP; remark: listed apart in the source
[11] = target: T4, human PDL1-Fc fusion protein; assay: BLI (ForteBIO Octet QKe), PDL1-Fc loaded, analyte 100 nM; remark: listed apart in the source
[12] = target: T5, recombinant protein PD-L1-His; assay: competitive ELISA, PDL1-his coated, competitor PD1-Fc 50 µg/mL; remark: listed apart in the source
[13] = target: T4, human PDL1-Fc fusion protein; assay: BLI (ForteBIO Octet QKe), PDL1-Fc loaded, analyte 100 nM; remark: listed apart in the source
[14] = target: T4, human PDL1-Fc fusion protein; assay: ELISA, human PDL1-Fc coated 200 ng/well, anti-His HRP; remark: listed apart in the source
[15] = target: T4, human PDL1-Fc fusion protein; assay: as above; remark: listed apart in the source

T1 sequence (Q9NZQ7 19-290): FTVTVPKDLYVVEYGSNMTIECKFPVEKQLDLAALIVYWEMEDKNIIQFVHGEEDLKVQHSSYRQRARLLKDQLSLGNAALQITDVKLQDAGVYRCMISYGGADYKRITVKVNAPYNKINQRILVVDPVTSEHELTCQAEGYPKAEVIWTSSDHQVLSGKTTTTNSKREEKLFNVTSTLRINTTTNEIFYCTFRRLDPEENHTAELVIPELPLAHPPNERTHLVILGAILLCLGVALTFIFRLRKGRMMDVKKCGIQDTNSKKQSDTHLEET
T2 sequence (P02769 25-607 limits assumed): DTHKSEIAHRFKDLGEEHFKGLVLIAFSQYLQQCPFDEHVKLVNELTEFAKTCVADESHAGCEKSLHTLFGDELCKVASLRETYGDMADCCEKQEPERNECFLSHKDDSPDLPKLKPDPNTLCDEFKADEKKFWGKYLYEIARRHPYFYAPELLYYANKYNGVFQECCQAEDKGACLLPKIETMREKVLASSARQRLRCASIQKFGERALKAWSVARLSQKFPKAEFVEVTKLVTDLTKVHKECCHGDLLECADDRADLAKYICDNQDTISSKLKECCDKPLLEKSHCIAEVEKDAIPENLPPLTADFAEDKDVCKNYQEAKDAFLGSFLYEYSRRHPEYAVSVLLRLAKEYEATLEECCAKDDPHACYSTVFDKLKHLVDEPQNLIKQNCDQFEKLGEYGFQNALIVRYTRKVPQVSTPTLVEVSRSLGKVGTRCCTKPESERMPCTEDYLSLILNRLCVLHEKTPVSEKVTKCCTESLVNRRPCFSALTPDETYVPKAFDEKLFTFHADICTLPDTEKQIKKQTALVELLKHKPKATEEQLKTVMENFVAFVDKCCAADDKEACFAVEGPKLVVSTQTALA
T4 sequence (chain, as listed by the source limits assumed): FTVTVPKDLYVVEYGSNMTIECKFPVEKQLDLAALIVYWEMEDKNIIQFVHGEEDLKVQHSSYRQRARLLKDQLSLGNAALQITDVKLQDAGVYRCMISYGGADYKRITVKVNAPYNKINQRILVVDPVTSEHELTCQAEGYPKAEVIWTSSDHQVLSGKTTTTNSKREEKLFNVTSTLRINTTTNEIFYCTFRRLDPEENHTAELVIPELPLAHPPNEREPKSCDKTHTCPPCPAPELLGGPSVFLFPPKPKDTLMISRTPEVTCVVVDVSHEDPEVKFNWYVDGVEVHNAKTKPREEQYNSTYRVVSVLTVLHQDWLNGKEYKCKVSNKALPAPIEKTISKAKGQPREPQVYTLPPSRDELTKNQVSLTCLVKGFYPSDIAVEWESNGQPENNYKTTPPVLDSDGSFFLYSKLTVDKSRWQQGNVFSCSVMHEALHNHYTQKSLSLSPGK
T5 sequence (Q9NZQ7 19-238 limits assumed): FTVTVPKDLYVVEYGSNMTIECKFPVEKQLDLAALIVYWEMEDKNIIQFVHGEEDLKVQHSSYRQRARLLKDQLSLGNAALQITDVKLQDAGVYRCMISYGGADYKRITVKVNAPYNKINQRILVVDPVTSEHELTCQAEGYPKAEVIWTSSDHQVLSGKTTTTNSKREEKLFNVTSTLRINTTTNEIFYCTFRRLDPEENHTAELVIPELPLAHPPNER

EC50 [1]: 0.073 µg/mL
IC50 [2]: 0.0406 µg/mL
binding result [3]: no binding (tested: 0.2 µg)
binding result [4]: no binding (tested: 0.2 µg)
EC50 [5]: 0.0128 µg/mL
IC50 [6]: 1.31 µg/mL
B1: PDL1-3 (VHH)
VHH: QVQLQESGGGLVQPGGSLRLSCAGSGSIFRITPVAWYRQAPEKQRELVAVITDNGSTDYGDFVKGRFTISRDNAKNTVYLQMNSLKPEDTAVYYCNSRARPVRWTWGQGTQVTVSS
notes: Alpaca nanobody expressed in E. coli, His-tagged

EC50 [7]: 0.0661 µg/mL
binding result [3]: no binding (tested: 0.2 µg)
binding result [4]: no binding (tested: 0.2 µg)
B2: PDL1-13 (VHH)
VHH: QVQLQESGGGLVQPGGSLRLSCAASGFTFSTSFVSWVRQAPGKGLEWVSRISPGGASTSYADSVKGRFTISRDNAENTLYLQMNSLKPEDTALYYCAREIYSGRFSGFDYWGQGTQVTVSS
notes: as for B1

Kd [8]: 3.39 nM
koff [8]: 0.00563 s⁻¹
kon [8]: 1.66e+06 M⁻¹ s⁻¹
EC50 [1]: 0.0606 µg/mL
IC50 [9]: 0.477 µg/mL
EC50 [10]: 0.0421 µg/mL and 3.48 nM
Kd [11]: 2.96 nM
koff [11]: 0.00532 s⁻¹
kon [11]: 1.8e+06 M⁻¹ s⁻¹
IC50 [12]: 5.8 µg/mL
IC50 [2]: 0.0626 µg/mL
binding result [3]: no binding (tested: 0.2 µg)
binding result [4]: no binding (tested: 0.2 µg)
EC50 [5]: 0.00825 µg/mL
IC50 [6]: 2.32 µg/mL
B3: PDL1-1 (VHH)
VHH: QVQLQESGGGLVQPGGSLTLSCAASGFTVSNSAVSWARQAPGKGLEWVSLIDSNRNTVYAQSVRGRFTISRDNVKNTVYLQMNSLKPEDTAVYYCAKGIWGSTLTGQGTQVTVSS
notes: Alpaca nanobody expressed in E. coli, purified on HisTrap and detected with anti-His antibody; also called PD-L1-1 heavy chain single-domain antibody; P1

Kd [13]: 1320 nM
EC50 [14]: 4 µg/mL
B4: PDL1-1v4 (VHH)
VHH: EVQLQESGGGLVQPGGSLRLSCAASGFTVSNSAVSWARQAPGKGLEWVSLIDSNRNTVYAQSVRGRFTISRDNSKNTVYLQMNSLRAEDTAVYYCAKGIWGSTLWGQGTTVTVSS
notes: Humanized PDL1-1, His-tagged

Kd [13]: 10.9 nM
EC50 [14]: 0.028 µg/mL
B5: PDL1-1v7 (VHH)
VHH: EVQLLESGGGLVQPGGSLRLSCAASGFTVSNSAVSWARQAPGKGLEWVSLIDSNRNTVYAQSVRGRFTISRDNSKNTVYLQMNSLRPEDTAVYYCAKGIWGSTLWGQGTTVTVSS
notes: Humanized PDL1-1, His-tagged

Kd [13]: 12.1 nM
EC50 [14]: 0.026 µg/mL
B6: PDL1-1v9 (VHH)
VHH: EVQLLESGGGLVQPGGSLRLSCAASGFTVSNSAVSWARQAPGKGLEWVSLIDSNRNTVYAQSVRGRFTISRDNSKNTVYLQMNSLRAEDTAVYYCAKGIWGSTLWGQGTQVTVSS
notes: Humanized PDL1-1, His-tagged

Kd [13]: 13.1 nM
EC50 [15]: 0.0275 µg/mL
EC50 [14]: 0.0251 µg/mL
B7: PDL1-1v1 (VHH)
VHH: EVQLLESGGGLVQPGGSLRLSCAASGFTVSNSAVSWARQAPGKGLEWVSLIDSNRNTVYAQSVRGRFTISRDNSKNTVYLQMNSLRAEDTAVYYCAKGIWGSTLWGQGTTVTVSS
notes: Humanized PDL1-1, His-tagged, from 293-F

EC50 [7]: 0.123 µg/mL
binding result [3]: no binding (tested: 0.2 µg)
binding result [4]: no binding (tested: 0.2 µg)
B8: PDL1-14 (VHH)
VHH: QVQLQESGGGLVQPGGSLRLSCAASGIISDINMVAWYRQAPGKQRELVAKIFRGGSTYYTDFVKGRFTISRENAKNTVYLQMNSLKPDDTAVYYCNARIQIRADRDYSDYWGQGTQVTVSS
notes: as for B1
